From the DeepSol protein solubility set come the findings set out here.

The data set is described as follows: soluble on expression in E. coli; label from the status in PepcDB or PDB records.
For the sequence “MVIRYDKAFIKDFKETDEGYLTITACPITRPGVFPYRRTDGGLSMEAKLPDELFSKATVLSANAKPMTDDHPTEPVTAANYNKYSKGMTHNDAHVLDNKLLVSFTITDAETIKKINDGKRELSIGFQADVSKETGVYNGMQYDSVQRNMQINHIAIVDEGRAGPEVAIRGDSVAFMIDTKDKQTGGNGMSKLIIDSKEFEVDSIVKAKFESLEAKLDAAEQRKANVEKLEGERDALKAQIDKLNKEIDEAKKKEVTADALDKRVQDRVDLINKAQKFLGDSVDFTGKSDREIKESVIAKTSPDFKGDGKSDDYIAAYFDSAVANVEKKGFTNPAAFNDAKDKDKEAAEDIEKQKNNRLNMNKKEDK”, the “soluble on expression in E. coli” value is recorded as “not soluble”. For “MEERLSTTSSYPSHPGRSVEEDHNTLLASSSISSIIRGTRGHLNNFIESVGNWLVPSSSGRDDDAVSLDSCQSVYSPVRHHINSGTGGGILMEPSSIHVPENYYSVTIGEAQMVVLKRYQNLRLIGSGAQGIVCSAFDTVRNEQVAIKKLSRPFQNVTHAKRAYRELKLMSLVNHKNIIGILNCFTPQKKLDEFNDLYIVMELMDANLCQVIQMDLDHERLSYLLYQMLCGIRHLHSAGIIHRDLKPSNIVVRSDCTLKILDFGLARTAIEAFMMTPYVVTRYYRAPEVILGMGYKENVDVWSIGCIFGELIRGRVLFPGGDHIDQWTRIIEQLGTPDRSFLERLQPTVRNYVENRPRYQATPFEVLFSDNMFPMTADSSRLTGAQARDLLSRMLVIDPERRISVDDALRHPYVNVWFDEIEVYAPPPLPYDHNMDVEQNVDSWREHIFRELTDYARTHDIYS”, the “soluble on expression in E. coli” value is “not soluble”. Turning to “MHKIRVIESTLGYPQKNRMESESYEGVQTYMDMKDGSLIAVQPNKDDLMSQILSPDNLNRAYLQVVRNKGVGGVDRMDFKQLLPYLHEHKSELIESIRIGRYKPNSVRRVDIAKDNGKKRLIGIPTVVDRLIQQAIVQVLSPIYERQFSPSSFGFRPDVVRMLEHHHHHH”, the “soluble on expression in E. coli” value is given as “not soluble”. On to “MLLDEKALVTLQKLGLTYYGARVYITLVSLGSSDATELSIESEVPRTKIYNVLKRLEAEKWIAVEHTRPIIYTAKYPKDILKEKRVAFNSEINEVSNQLSEVYDKVIDNEVPKVWLLRGMNNITAKTINMIKRAKRDITLLGALYSENEIEQLKEELSYATKKGLHVRVISRQSIKLNNGELDIIKNLSSVIPQIKIGGPEFSKFVIIDDKELLILFSKVEDNILDIDSTIAIWIPNVSIASYQASIFNGIWNGYCQVDRC”, for which the “soluble on expression in E. coli” value is on record as “not soluble”.

Regarding “MGSDKIHHHHHHMYYGSIITVLSSDKNKLTGIAEKLGKLHETAKTKIYYRKKGEYIRSILLTTEYPEKIIDLAEALSLSSTAILYIPETLTWMDGELALLIDSLNTHNKIVISNLDQGKINNILGSLSSFTKFDLYNDIPDLSETEEEDKGIVYVDRVFTVKGVGTVVTGFSFTNVEVHEKLVALPYNKEVEIKSIQVLDEDQKSVSTGVRIGFALKNVKEEEIEDLLYLVKPNVKVVKEIEGQITNYKWSTINQGQNHIIVKGHGIAANIKVDNQKAKIMSSVPIPIVDNRILVLNVNVRQGKPRVAGYISL”, the “soluble on expression in E. coli” value is listed as “not soluble”. Regarding “GSGMKETAAAKFERQHMDSPDLGTTLLEQYCHRTTIGNFSGPYTYCNTTLDQIGTCWPQSAPGALVERPCPEYFNGIKYNTTRNAYRECLENGTWASRVNYSHCEPILDDFQRKYDLHY”, the “soluble on expression in E. coli” value is “soluble”. With “MGSDKIHHHHHHMSTSYEISSLPWLSASHELLLKQVRLGSLSHGHLLDVHTQLGGDVLAQSMAKLILCQALTPVGACGQCKACLLVSAGTHPDLHSVAPDGNQIKVDQIRSLCSSLTSTAQQGGKRVAIIYQSERMNTASANALLKTLEEPGKETFLLLQTDRTAALLATVKSRCQTLSITPPSNAEVNAWLKGQQLLPVVPDGAKPHDVTWCLSVVGGPIQLAQSLQSDKYQTLLNYRKEWAMSLSSGHLCGSLLALKDNQLIDALQVLYLYLRHFVLKSNDINAFTKAQVITLAAKIMEMRHKLTTMAAVNTQALCMDYVLAFRQLTHTHR”, the “soluble on expression in E. coli” value is given as “not soluble”. Take “EQKVYEQKTRQQVMLSAYQQKEKDIESILDMQKQNSKQRHDINNVLILISELIQDEKYSKALEVLDKYRTGYNNINVTEIVSNNIVLNYLLNRKINQCREAGIDMACYVLWNIAGVDDMDLYILLENLCDNAIEAAGQCEKPSIKLQIAEDNASMYIDIGNTTSGNVLNNNPHMNTTKKDKNMHGFGIMNIRDIIDKYNGTINYEQQGDNYLMCRCTLEKVCQ”: the “soluble on expression in E. coli” value is “not soluble”. Then “MSDVTGDLAAVSEAKGGSDAARISEVKAWLTSQFEAVGKEVPNFEYTHRSITHLYNLATASQAKSQAATIVANDFRLKASEYRAQAARIREILESAGMSQESLPSNVVSSAQVLANVANLLNIRDTELSRILAQLEDDVVPCESQMENWKTNLEVMAVKEEQYIQQYKKYEMLLNRVGYTPKISHRELVEMAEHRKELDKMTKPVLDTLRSYQDLPPDKALAALAIEDKKRQFTAAEKYLEEVLQSALETNDE”, with “soluble”; and “MFSKVNNQKMLEDCFYIRKKVFVEEQGVPEESEIDEYESESIHLIGYDNGQPVATARIRPINETTVKIERVAVMKSHRGQGMGRMLMQAVESLAKDEGFYVATMNAQCHAIPFYESLNFKMRGNIFLEEGIEHIEMTKKLTSLN”, with “not soluble”. As to “MAEGKAGGAAGLFAKQVQKKFSRAQEKVLQKLGKAVETKDERFEQSANNFYQQQAEGHKLYKDLKNFLSAVKVMHESSKRVSETLQEIYSSEWDGHEELKAIVWNNDLLWEDYEEKLADQAVRTMEIYVAQFSEIKERIAKRGRKLVDYDSARHHLEAVQNAKKKDEAKTAKAEEEFNKAQTVFEDLNQELLEELPILYNSRIGCYVTIFQNISNLRDVFYREMSKLNHNLYEVMSKLEKQHSNKVFVVKGLSSSSRRSLVISPPVRTATVSSPLTSPTSPSTLSLKSESESVSATEDLAPDAAQGEDNSEIKELLEEEEIEKEGSEASSSEEDEPLPACNGPAQAQPSPTTERAKSQEEVLPSSTTPSPGGALSPSGQPSSSATEVVLRTRTASEGSEQPKKRASIQRTSAPPSRPPPPRATASPRPSSGNIPSSPTASGGGSPTSPRASLGTGTASPRTSLEVSPNPEPPEKPVRTPEAKENENIHNQNPEELCTSPTLMTSQVASEPGEAKKMEDKEKDNKLISADSSEGQDQLQVSMVPENNNLTAPEPQEEVSTSENPQL”, the “soluble on expression in E. coli” value is “soluble”. Then “VSFNANEVTHVDTPQEALAASLNKFGEVNLEYMENLSETGRQELLTQLENRIFYNPMMKNYEIKDRFIAGNVVAKVEWIENYLKDYPDDDASKKSLEALQKAIPEPISFELLDFNLGERWIPVSVYEEFAGYLFEAKAHIHYTESIDEFSVSFEETNANITDRYYVKGEKRGYYGNDLLKHALHNTVPDITKTVQDEEGNDIKVRDAEAIQLADAKINEIRSAFTGWLNEQLPEFKQHLADMYNRKFNCYVRPDYDGSLQSF”, with “soluble”; and “MLSSTCTAAVRGLSTTAQLSKINNVTIIGAGLMGSGIAQVSANAKLNVTVVDSNQSALEKAQQGIANSLKRVAKKKHADDAAAQTALVSSVLDRIKMSTNVSDSVKDADLVIEAIVENIDIKRKLFAEVEVAAKPTTLITTNTSSLRLADIGLNLKDKSRFGGLHFFNPVPMMKLLEVVRHTETSDATFNQLVDYGKTVGKTTVACKDTPGFIVNRLLVPYMFEALRLYERGDASMEDIDVAMKLGAGYPMGPFELSDYVGLDTCKFIMDGWHAQYPEEVAFTPSPLLNSLVDSGKNGRKSGEGFYKYK”, with “not soluble”; and “MGSDKIHHHHHHMRVYFDNNATTRVDDRVLEEMIVFYREKYGNPNSAHGMGIEANLHMEKAREKVAKVLGVSPSEIFFTSCATESINWILKTVAETFEKRKRTIITTPIEHKAVLETMKYLSMKGFKVKYVPVDSRGVVKLEELEKLVDEDTFLVSIMAANNEVGTIQPVEDVTRIVKKKNKETLVHVDAVQTIGKIPFSLEKLEVDYASFSAHKFHGPKGVGITYIRKGVPIRPLIHGGGQERGLRSGTQNVPGIVGAARAMEIAVEELSEAAKHMEKLRSKLVSGLMNLGAHIITPLEISLPNTLSVSFPNIRGSTLQNLLSGYGIYVSTSSACTSKDERLSHVLDAMGVDRRIAQGAIRISLCKYNTEEEVDYFLKKIEEILSFLDLTGNNRR”, with “not soluble”. As for “QKLGDGHYVMDGKVRIDQVNSLLGASIQEDVDTIGGLILKENIDIEAGESIRIGSYTIKVLKMDGRLIKQIDIKEEAGNTTGITAHHKLPLPEPVMLNSATLSEK”, the “soluble on expression in E. coli” value was “not soluble”. Take “MTEEQFSSYHPPLPPTTEEDRFSWLRLLRSRRVGPTTFRRLMHEHGTAQNALAALPEVARAAGVEGYEICPPGVVEAELKAAKAAKARLLCLGDADYPSHLAGISDAPPLLWLLGDPALLRRPMIALVGARNASSLGTRMARALAQDLGTAGFVVVSGLARGIDTAAHLAALPSGTIAVMAGGVDTVYPAENTHLAADIAQHGLRLSEQPMRLTPQARHFPRRNRIISGLAQAVVVVEAAAKSGSLITARDALDQGREVLAVPGHPFDARAAGCNMLIRDGAHLVRNAEDVITALPALTAPQPQPDLCDLMQQPAPPAKRSLRETVALHSLILDRLGPSPVAEDQLIRDLAASPGEVAPVLVDLELEGRINRQAGGLLSRVN”: the “soluble on expression in E. coli” value is given as “not soluble”. As to “SLVPQGGPVLCRDEMEEWSASEAMLFEEALEKYGKDFNDIRQDFLPWKSLASIVQFYYMWKTTDRYIQQKRLKAAEAEG”, the “soluble on expression in E. coli” value is reported as “soluble”.

“MIITEQNMPEEKLQTLSLQVINGSELESGRAARCLFTQQGNVGHAPECHWSVQDRQQSIPAQAFTVILHDGTFCLRPQTAQLWLNQAKVTATSDLIQLRQGDEIQIGRLMVRVHLNRGDIPHYDEEMATPETIVTNRDMLTDTLLSTEGAPHYPGMTHRHQLADTVVNGFSADPLQALQSESLITTGDPLSGIAAVRPSAPLSDPASNGGINTPFMDLPPIYASPGDHNDDISAAEMAQRHLAVTPLLRGLGGSLTVSNSDDADDFLEEAGRTLQAAIKGLLDLQQQRNSLSDKHLRPLEDNPLRLNMDYATALDVMFAEGKSPVHLAAPAAVSESLRNVRHHEEANRAAIVESLRVLLDAFSPQNLLRRFVQYRRSHELRQPLDDAGAWQMYSHYYEELASDRQQGFEMLFNEVYAQVYDRVLREKQREPEA”: the “soluble on expression in E. coli” value is reported as “soluble”. Consider “MDLSSKPQQQLLNSLPIAGELTVTGEMGVCYKECLKNHAANLGGHALDGCGEFMPSPTATSTDPSSLRCAACGCHRNFHRRDPSENLNFLTAPPISSPSGTESPPSRHVSSPVPCSYYTSAPPHHVILSLSSGFPGPSDQDPTVVRSENSSRGAMRKRTRTKFTPEQKIKMRAFAEKAGWKINGCDEKSVREFCNEVGIERGVLKVWMHNNKYSLLNGKIREIEHGLCLNTHSNDGDGSSSS”, for which the “soluble on expression in E. coli” value is given as “soluble”.

For the sequence “MKITIIGAGNIGSAVAACLAKGHLYNEKDIIISTPHTDKLENLHKQFPAIRIMTENQYAISEADIIILAVKPCIVDEVLSPLRFSRTQILVSLVTGISISHLAHLSETEMPIFRVVPNIAITEHSSLTLITSRKAGKEHQQLIKQTFEEGGKCLFAEEKQLDIISALTSSGIAFALKYIHAAMQAGIELGISAEDAMRMTAYSMEGATELILNHDTHPLLEIEKAATPGGATIKGLNELEHRGFTSAVIHAIKSSATVSTDKETEE”, the “soluble on expression in E. coli” value was “not soluble”. “MAHHHHHHMALVQSHYGSDAIHTRLNDDPPSSEEIERRRGAGCLPYSNRLVHRLVVLPVTPPSIYEGETTQSPVETQGTHNERRANERDRQRRARYASLLRSHYVPLVPFSTFTEPQERSFKLPTISKYPAARRQPQFAQSEEDYMMCGGFYPGPDQYDHRGGPRLGVMQQHTVQLERVHSRHVAPPPSRLINAPGNEDMLFPI”: the “soluble on expression in E. coli” value was “not soluble”.
